Measurements published in patent US20060002901A1, “Composition containing eosinophil cationic protein” (priority 2002, published 2006).

B1: eosinophil cationic protein (protein, UniProt P12724 28-160, looked up)
Eosinophil cationic protein: RPPQFTRAQWFAIQHISLNPPRCTIAMRAINNYRWRCKNQNTFLRTTFANVVNVCGNQSIRCPHNRTLNNCHRSRFRVPLLHCDLINPGAQNISNCTYADRPGRRFYVVACDNRDPRDSPRYPVVPVHLDTTI
B2: RNaseA: RNaseA, added as comparison protein alongside ECP (protein, UniProt P61823 27-150, looked up)
Ribonuclease pancreatic: KETAAAKFERQHMDSSTSAASSSNYCNQMMKSRNLTKDRCKPVNTFVHESLADVQAVCSQKNVACKNGQTNCYQSYSTMSITDCRETGSSKYPNCAYKTTQANKHIIVACEGNPYVPVHFDASV

How the values were obtained:
BALB/c 3T3 cells [1] = experiment: Proliferation of BALB/c 3T3 cells in low-serum medium, phase-contrast microscopy; assay type: cell-based, mouse; details: 0.5% FBS, 1 μM ECP, 60 pM bFGF, 48 hours, FIG. 4
Protocol: In DMEM culture medium containing 10% FBS in a 24-well culture plate, BALB/c 3T3 cells were inoculated at a concentration of 2×10^4 cells/well, and cultured. […] After 24 hours, 1 μM ECP or RNaseA, and 60 pM bFGF were added to the culture solution in combination, respectively, then the culture was continued for an additional 48 hours.

BALB/c 3T3 cells [2] = experiment: Cytoskeletal molecule (stress fiber) formation in low-serum medium, confocal immunostaining; assay type: cell-based, mouse; details: 0.5% FBS, 1 μM ECP, 6 hours, FIG. 5
Protocol: A round cover glass with a diameter of 15 mm which had been sterilized in advance was placed in a 24-well culture plate, 1× phosphate buffer (PBS) containing 0.1% gelatin was added to each well so that the cover glass was sufficiently dipped in the solution. Then, the plate was left at room temperature for 30 minutes, whereby the cover glass was coated with gelatin. Then, each well was filled with DMEM culture medium containing 10% FBS, and BALB/c 3T3 cells were inoculated at a concentration of 2×10^4 cells/well and cultured. […] After an additional 24 hours, 1 μM ECP or RNaseA was added to the culture solution, respectively. After 6 hours, the cover glass on which BALB/c 3T3 cells were grown, was taken out from the well, washed 2 to 3 times with 1× PBS, then dipped in 4% formaldehyde (Wako Pure Chemical Industries, Ltd.) at room temperature for 10 minutes, whereby the cells were fixed. Then, the cover glass was washed 2 to 3 times with 1× PBS, dipped in 1× PBS containing 0.1% Trton-X100 for 10 minutes, whereby the cell membranes were lysed. Then, the cover glass was washed 2 to 3 times with 1× PBS, dipped in 0.5% BSA/PBS and left at room temperature for 30 minutes, whereby a nonspecific adsorption region was blocked with BSA in this operation. […]

[3] = system: mouse mammary epithelial cell line (HC-11); experiment: Proliferation of cell lines derived from normal tissue, 10% FBS, MTT; assay type: cell-based; details: ECP 0 to 10 μM, 48 hours, FIG. 1
Protocol: (§1) The effects of ECP on the proliferation of a mouse fibroblast cell line (BALB/c 3T3), aortic smooth muscle cell line (A10), mouse mammary epithelial cell line (HC-11) and human umbilical vessel endothelial cell line (HUVEC) were analyzed in the presence of 10% FBS. First, in DMEM culture medium containing 10% FBS in a 96-well culture plate, each cell line was inoculated at a concentration of 500 cells/well. Then, the cells were cultured for 24 hours in an incubator in which CO2 was maintained at 5%. Then, the respective concentrations of ECP and RNaseA (0 to 10 μM) were added, and the culture was continued for 48 hours in the same incubator. Then, 3-(4,5-dimethylthiazol-2-yl)-diphenyl-tetrazolium bromide (MTT) was added, and the proliferation rate of each cell line was obtained.

[4] = system: aortic smooth muscle cell line (A10); experiment: as above; assay type: cell-based; details: ECP 0 to 10 μM, 48 hours, FIG. 1
Protocol: as §1

[5] = system: mouse fibroblast cell line (BALB/c 3T3); experiment: as above; assay type: cell-based; details: ECP 0 to 10 μM, 48 hours, FIG. 1
Protocol: as §1

[6] = system: human umbilical vessel endothelial cell line (HUVEC); experiment: as above; assay type: cell-based; details: ECP 0 to 10 μM, 48 hours, FIG. 1
Protocol: as §1

BALB/c 3T3 cells [7] = experiment: Time-course proliferation of BALB/c 3T3 cells, living cells counted every 24 hours; assay type: cell-based, mouse; details: 10% FBS, 4 days, medium changed on day 2, FIG. 3
Protocol: In DMEM culture medium containing 10% FBS in a 96-well culture plate, BALB/c 3T3 cells were inoculated at a concentration of 1000 cells/well. After the cells were cultured for 24 hours, 1 μM ECP or 1 μM RNaseA was added to the culture solution to a final concentration of […], respectively. The culture was continued for 4 days, and the number of living cells was counted for every 24 hours. Incidentally, the culture medium was changed on day 2 of the culture.

BALB/c 3T3 A31-K cells = experiment: Proliferation of BALB/c 3T3 cells, number of living cells after 48 hours; assay type: cell-based, mouse; details: 10% FBS, FIG. 2
Protocol: In DMEM culture medium containing 10% FBS in a 96-well culture plate, BALB/c 3T3 A31-K cells were inoculated at a concentration of 1000 cells/well, and after 24 hours, ECP or RNaseA was added to the culture solution to a final concentration of 1 μM, respectively. After the culture was continued for 48 hours, the number of living cells was counted.

[8] = system: myocardial cell derived from newborn rat; experiment: Number of heartbeats of myocardial cells; assay type: cell-based; details: ECP 10 ng, 100 ng or 1 μg per ml; 24 hours; FIG. 9
Protocol: Myocardial cells isolated from a newborn rat were dedifferentiated in the same manner as in Example 7 and ECP was added to the culture solution (10 ng, 100 ng or 1 μg per ml). Twenty-four hours after the addition, the number of heartbeats was counted.
Further, the effects of a ROCK inhibitor (Y27632) on the effects of ECP on increase in the number of heartbeats of myocardial cell were studied. The adding amounts of Y27632 were set at 0, 5, 10 and 15 μM, and the ECP concentration was set at 100 ng/ml.

PC12 cells = experiment: Survival of nerve like PC12 cells in serum-free medium, Cell Titer-Glo; assay type: cell-based; details: serum-free DMEM, 72 hours, ECP 10 and 1000 ng/ml, FIG. 11
Protocol: PC12 cells were cultured overnight in a 96-well culture plate at 1×10^4 cells/well/100 μl. As the culture medium, DMEM culture medium containing 10% FBS, penicillin, and streptomycin was used. Then, washing was performed once with 150 μl of DMEM, and the medium was changed to DMEM culture medium containing 100 μl of ECP, penicillin, and streptomycin. After cells were cultured for 72 hours, the number of living cells was counted using Cell Titer-GloTM Luminescent Cell Viability Assay (No. G7570; Promega).

[9] = system: myocardial cell derived from newborn rat; experiment: Immunofluorescence staining of dedifferentiated myocardial cells; assay type: cell-based; details: ECP 100 ng/ml; 24 hours; FIG. 8
Protocol: The cultured myocardial cells were cultured in SFM (2 μM BrDU, 100 units/ml penicillin, 100 μg/ml streptomycin) for 48 hours, whereby the cells were dedifferentiated. Then, the culture medium was changed, and ECP was added to a final concentration of 100 ng/ml. After an additional 24 hours, the cells were washed three times with 1× PBS for 10 minutes each, then dipped in 4% paraformaldehyde at room temperature for 30 minutes, whereby the cells were fixed. Then, the cells were dipped in PBS containing 0.25% Triton-X100 at room temperature for 15 minutes, and reacted in a blocking buffer containing BSA, to which anti-ENH1 antibody had been added at a ratio of 1:40, or anti-α-actinin antibody had been added at a ratio of 1:100, at 4° C. overnight. Then, a 20-minute washing with PBS containing 0.03% Triton-X100 was performed and the washing was repeated three times. To the blocking buffer, Cy3-labeled anti-mouse antibody and Cy2-labeled anti-rabbit IgG antibody were added (1:250 dilution in blocking buffer), respectively, and reaction was performed at 4° C. for 4 hours. After the reaction, a 20-minute washing with PBS containing 0.03% Triton-X100 was performed again and the washing was repeated three times. Then, water content was removed and 90% glycerol was added.

MC3T3-E1 cells = experiment: Alkali phosphatase (ALP) activity in osteoblast-like cells; assay type: cell-based, rat; details: ECP at 1 ng/ml vs BMP-4 100 ng/ml, 72 hours, FIG. 12
Protocol: MC3T3-E1 cells were inoculated into α-MEM medium in a 24-well culture plate, and ECP (at a final concentration of 1 ng, 10 ng, 100 ng or 1 μg per ml), BMP-4 (100 ng/ml) or bFGF (100 ng/ml) was added. After 72 hours, the cells were washed with 10 mM Tris-HCl (pH 7.2) solution twice, and lysed in 10 mM Tris-HCl (pH 7.2) solution containing 0.1% Triton-X100. Then, the cell lysis solution was subjected to sonication treatment for 15 seconds to homoginize the cells. Then, 100 μl of the homogenized cell solution and 0.1 M aminomethyl propanol were mixed with 100 μl of a substrate solution (4 mg/ml p-nitorophenyl phosphate and 2 mM MgCl2) adjusted at pH 10.5, and they were reacted with each other at 37° C. for 30 minutes. The reaction was terminated with 0.5 M NaOH, and the absorbance at 410 nm was measured. The obtained value was divided by the total amount of proteins in the homogenized cell solution, whereby the specific activity was calculated.

| Molecule | cell proliferation in low-serum medium (phase-contrast observation) (BALB/c 3T3 cells [1]) | formation of cytoskeletal molecules (stress fibers) (BALB/c 3T3 cells [2]) | cell proliferation (proliferation rate, MTT) [3] | cell proliferation (proliferation rate, MTT) [4] | cell proliferation (proliferation rate, MTT) [5] | cell proliferation (proliferation rate, MTT) [6] | time-course cell proliferation (number of living cells) (BALB/c 3T3 cells [7]) | cell proliferation (number of living cells) (BALB/c 3T3 A31-K cells) | number of heartbeats of myocardial cell [8] | survival of nerve cells (number of living cells) (PC12 cells) | effect on cardiac hypertrophy in myocardial cell (immunofluorescence staining) [9] | ALP activity (specific activity, control = 100%) (MC3T3-E1 cells) |
| --- | --- | --- | --- | --- | --- | --- | --- | --- | --- | --- | --- | --- |
| bFGF: bFGF, added at 60 pM to low-serum culture | The cells were proliferated |  |  |  |  |  |  |  |  |  |  |  |
| B1 |  | increase in the formation of many cytoskeletal molecules (stress fibers) was confirmed | the proliferation was not promoted or the proliferation was inhibited | the proliferation was not promoted or the proliferation was inhibited | the cell proliferation was promoted | the proliferation was not promoted or the proliferation was inhibited | the proliferation of cells was significantly promoted | significantly promoted the cell proliferation at any concentration | increased in a dose-dependent manner | the survival of nerve cells was maintained | an effect of ECP on cardiac hypertrophy in a myocardial cell was confirmed | equal to or higher than that of BMP-4 |
| B2 |  |  |  |  |  |  |  | could not be observed |  |  |  |  |
